Results from US20100330617A1 (Sanofi, published 2010).

Target: T1, bovine serum albumin (bovine, UniProt P02769 25-607)
T1 construct: Control resin with an equimolar amount of BSA coupled; also called BSA; BSA-agarose resin
Assay: affinity chromatography of murine liver extract on BSA control resin, SDS-PAGE and silver staining

T1 sequence (P02769 25-607 limits assumed): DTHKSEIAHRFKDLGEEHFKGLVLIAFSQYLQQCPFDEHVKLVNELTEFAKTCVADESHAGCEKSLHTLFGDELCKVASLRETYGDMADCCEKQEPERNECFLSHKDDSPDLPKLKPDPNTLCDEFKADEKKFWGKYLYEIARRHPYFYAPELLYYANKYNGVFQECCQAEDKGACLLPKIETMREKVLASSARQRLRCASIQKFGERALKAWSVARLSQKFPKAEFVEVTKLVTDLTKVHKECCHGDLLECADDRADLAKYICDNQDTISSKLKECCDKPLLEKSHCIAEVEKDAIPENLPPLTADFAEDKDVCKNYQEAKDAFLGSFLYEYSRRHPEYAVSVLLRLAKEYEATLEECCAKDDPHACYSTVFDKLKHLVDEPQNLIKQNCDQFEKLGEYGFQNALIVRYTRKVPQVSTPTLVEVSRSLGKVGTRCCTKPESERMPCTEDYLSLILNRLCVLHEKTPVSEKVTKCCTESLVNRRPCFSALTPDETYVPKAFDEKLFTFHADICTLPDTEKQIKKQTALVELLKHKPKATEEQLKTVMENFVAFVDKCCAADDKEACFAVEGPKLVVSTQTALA

binding result: no binding
B1: endogenous LIMP-2 from murine liver extract (75 kD GC binding protein) (receptor)
chain: MGRCCFYTAGTLSLLLLVTSVTLLVARVFQKAVDQTIEKNMVLQNGTKVFNSWEKPPLPVYIQFYFFNVTNPEEILQGEIPLLEEVGPYTYRELRNKANIQFGENGTTISAVTNKAYVFERNQSVGDPNVDLIRTINIPLLTVVDLAQLTLLRELIEAMLKAYQQKLFVIHTVHELLWGYKDEILSLVHIFKPDVSPNFGLFYERNGTNDGEYVFLTGEDNYLNFSKIVEWNGKTSLDWWTTDTCNMINGTDGDSFHPLISKDEVLYLFPSDLCRSVHITFSSFENVEGLPAFRYKVPAEILANTSENAGFCIPEGNCMDSGVLNISICKNGAPIIMSFPHFYQADEKFVSAIKGMHPNKEEHESFVDINPLTGIILRGAKRFQINTYVRKLDDFVETGDIRTMVFPVMYLNESVLIDKETANQLKSVINTTLVVTNIPYIIMALGVFFGLVFTWLACRGQGSMDEGTADERAPLIRT
notes: Identified by mass spectrometry as LIMP-2; N-glycosylated (75 kD, 54 kD after PNGase-F); also called 75 kD polypeptide
